System: preKARS2 (cytosolic precursor of human mitochondrial lysyl-tRNA synthetase) (human), Q15046-2
Experiment: EMSA
Conditions: 10 mM Mg2+; unmodified T7 transcript; EMSA: 20 mM Tris-HCl pH 7.5, 150 mM NaCl, 10 mM MgCl2, 5 mM DTT, 10% glycerol, 0.1 mg/ml BSA, 30 C, 15 min; native 8% PAGE in 0.5x Tris-borate pH 8.3, 5% …

Sequence of preKARS2 (cytosolic precursor of human mitochondrial lysyl-tRNA synthetase) (human), Q15046-2 (Q15046 other isoform, or with tags, fused parts or gaps): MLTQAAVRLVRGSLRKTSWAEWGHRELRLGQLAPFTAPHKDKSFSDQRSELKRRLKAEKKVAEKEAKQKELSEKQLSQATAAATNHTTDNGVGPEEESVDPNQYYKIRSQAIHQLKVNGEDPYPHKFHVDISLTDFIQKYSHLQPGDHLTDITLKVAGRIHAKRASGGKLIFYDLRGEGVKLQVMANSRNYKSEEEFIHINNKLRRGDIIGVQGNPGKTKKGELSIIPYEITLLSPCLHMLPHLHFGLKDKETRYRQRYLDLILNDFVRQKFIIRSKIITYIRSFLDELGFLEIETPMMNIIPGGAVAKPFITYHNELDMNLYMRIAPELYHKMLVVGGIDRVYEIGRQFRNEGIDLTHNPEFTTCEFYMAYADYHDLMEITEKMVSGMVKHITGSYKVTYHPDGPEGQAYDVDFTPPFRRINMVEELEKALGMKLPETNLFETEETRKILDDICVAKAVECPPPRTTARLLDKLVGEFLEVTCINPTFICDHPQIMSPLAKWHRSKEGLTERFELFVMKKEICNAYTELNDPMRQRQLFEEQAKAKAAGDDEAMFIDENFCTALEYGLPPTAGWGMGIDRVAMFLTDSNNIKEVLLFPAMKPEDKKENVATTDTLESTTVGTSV

tRK1 (yeast tRNALys CUU)
Kd: 0.3 µM

Source: PMC3683045
